These results are taken from patent US20260234285A1 (University of Texas, published 2026).

The target of assay [1] is T1, INSR isoform long, over-expressed on HEK293 cells (human, UniProt P06213 28-1382).
T1 construct: whole, on cells; Long isoform of the UniProt entry; also called INSR long isoform
Description: flow cytometry on live transfected HEK293 cells, dose range 0-300 µg/mL.
Description: (§1) Human HEK293 cells were transfected with expression vectors encoding ZsGreen1 only, or ZsGreen1 and CD274 (PD-L1), PDCD1LG2 (PD-L2), INSR isoform long, INSR Isoform short or CD20 (assay control). […] Cells were washed, and incubated with the same AF647 anti-human IgG Fc detection antibody as used in the cell microarray screens. Cells were again washed, and analyzed by flow cytometry using an Accuri flow cytometer (BD). A 7AAD live/dead dye was used to exclude dead cells in the analysis, and ZsGreen+ (transfected) cells were selected for analysis.
(§2) Interactions were then investigated by flow cytometry.

In assay [2] the target is T2, human PD-L2 (PDCD1LG2) expressed on cells (human, UniProt Q9BQ51 20-273).
T2 construct: also called PDCD1LG2 (PD-L2); PD-L2 CHO cells
T2 sequence: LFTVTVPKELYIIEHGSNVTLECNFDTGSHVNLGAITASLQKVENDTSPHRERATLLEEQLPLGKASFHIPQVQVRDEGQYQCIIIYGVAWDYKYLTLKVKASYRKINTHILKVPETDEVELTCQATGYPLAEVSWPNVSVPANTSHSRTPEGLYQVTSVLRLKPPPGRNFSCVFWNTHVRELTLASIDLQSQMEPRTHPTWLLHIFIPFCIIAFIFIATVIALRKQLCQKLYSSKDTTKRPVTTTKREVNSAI
The description is as above.
Description: as §1, §2

Assay [3] concerns the target T3, human PD-L1 (CD274) expressed on cells (human, UniProt Q9NZQ7 19-290).
T3 construct: also called CD274 (PD-L1); PD-L1 CHO cells
The assay is described as above.
Description: as §1, §2

In assay [4] the target is T4, mPD-L2 dimer (Mus musculus, UniProt Q9WUL5).
T4 construct: also called mouse PD-L2 protein
T4 sequence (PD-L2 chain, looked up): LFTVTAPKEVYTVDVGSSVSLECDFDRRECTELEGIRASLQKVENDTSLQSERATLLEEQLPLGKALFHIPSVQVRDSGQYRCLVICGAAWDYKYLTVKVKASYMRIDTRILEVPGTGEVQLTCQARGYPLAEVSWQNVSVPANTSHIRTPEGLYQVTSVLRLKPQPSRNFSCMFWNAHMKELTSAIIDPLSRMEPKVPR
Nature of the assay: Octet, column mPD-L2 dimer; unit Molar from the legend.
Description: (§3) Antibody Characterization. Antibody candidates generated from yeast-surface display screening were tested for the capacity to bind to PD-L1 or PD-L2.

In assay [5] the target is T5, Human PD-L1-Fc (Homo sapiens, UniProt Q9NZQ7).
T5 construct: Antigen in Octet IgG KD Human PD-L1-Fc (M) Avid
T5 sequence (Q9NZQ7 19-239 limits assumed): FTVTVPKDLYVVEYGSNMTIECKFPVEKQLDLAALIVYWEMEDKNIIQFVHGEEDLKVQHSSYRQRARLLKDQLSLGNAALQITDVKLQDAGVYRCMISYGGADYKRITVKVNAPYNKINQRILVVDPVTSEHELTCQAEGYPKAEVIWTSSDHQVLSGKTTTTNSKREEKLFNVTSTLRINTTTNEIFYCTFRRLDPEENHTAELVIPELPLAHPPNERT
Nature of the assay: Octet, column hPD-L1 dimer; unit Molar from the legend.

Assay [6] has as its target T6, human PD-L1 protein (monomeric, soluble analyte) (human, UniProt Q9NZQ7 19-238).
T6 construct: Recombinant human PD-L1 protein used as analyte on Octet or Biacore; also called monomeric PD-L1; monomeric human ligand
Nature of the assay: Octet, monomeric human ligand.

Assay [7] addresses T7, human PD-L2 protein (monomeric, soluble analyte) (human, UniProt Q9BQ51 20-220).
T7 construct: Recombinant human PD-L2 protein used as analyte on Octet or Biacore; a soluble form would lack the transmembrane part; also called monomeric PD-L2; monomeric human ligand
T7 sequence: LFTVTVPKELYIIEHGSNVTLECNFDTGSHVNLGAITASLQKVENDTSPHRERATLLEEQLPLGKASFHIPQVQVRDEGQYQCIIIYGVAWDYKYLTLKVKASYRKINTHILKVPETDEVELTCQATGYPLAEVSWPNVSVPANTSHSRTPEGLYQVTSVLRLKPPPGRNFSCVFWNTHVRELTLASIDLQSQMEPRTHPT
Nature of the assay: Octet, monomeric human ligand.

Assay [8] has as its target T8, Human PD-L2-Fc (Homo sapiens, UniProt Q9BQ51).
T8 construct: Antigen in Octet IgG KD Human PD-L2-Fc (M) Avid
T8 sequence (PD-L2-Fc fusion chain, looked up): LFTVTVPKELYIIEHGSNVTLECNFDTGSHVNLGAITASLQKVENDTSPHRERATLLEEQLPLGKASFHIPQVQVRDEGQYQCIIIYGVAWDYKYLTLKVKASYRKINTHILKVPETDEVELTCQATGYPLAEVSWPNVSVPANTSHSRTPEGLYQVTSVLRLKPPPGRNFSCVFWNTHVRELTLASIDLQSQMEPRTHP
Description: Octet, IgG KD, avid format, human PD-L2-Fc.

The target of assay [9] is T5, Human PD-L1-Fc. Description: Octet, IgG KD, avid format, human PD-L1-Fc.
The target in assay [10] is T9, Human INSR BioVendor (Homo sapiens, UniProt P06213-2).
T9 construct: recombinant soluble protein used in Octet, monovalent format; Antigen of the column Octet IgG KD Human INSR BioVendor (M) Monovalent
Nature of the assay: Octet, IgG KD, monovalent format, human INSR BioVendor.

Assay [11] has as its target T2, human PD-L2 (PDCD1LG2) expressed on …. Nature of the assay: cell-based or functional assay.
Assay [12] has as its target T6, human PD-L1 protein (monomeric, soluble …). Nature of the assay: Biacore, IgG KD, monovalent format, human PD-L1-His.
Assay [13] addresses T10, mPD-L1 dimer (Mus musculus, UniProt Q9EP73).
T10 construct: also called mouse PD-L1 protein
Nature of the assay: Octet, column mPD-L1 dimer; unit Molar from the legend.
Description: as §3

Assay [14] concerns the target T7, human PD-L2 protein (monomeric, soluble …). Description: Biacore, IgG KD, monovalent format, human PD-L2-His.
Assay [15] addresses T8, Human PD-L2-Fc. Nature of the assay: Octet, column hPD-L2 dimer; unit Molar from the legend.
Assay [16] addresses T3, human PD-L1 (CD274) expressed on cells. Description: cell-based or functional assay.
Assay [17] addresses T7, human PD-L2 protein (monomeric, soluble …). Description: Octet, IgG KD, monovalent format, human PD-L2-His.
For assay [18], the target named is T6, human PD-L1 protein (monomeric, soluble …). Description: Octet, IgG KD, monovalent format, human PD-L1-His.

T6 sequence (Q9NZQ7 19-238 limits assumed): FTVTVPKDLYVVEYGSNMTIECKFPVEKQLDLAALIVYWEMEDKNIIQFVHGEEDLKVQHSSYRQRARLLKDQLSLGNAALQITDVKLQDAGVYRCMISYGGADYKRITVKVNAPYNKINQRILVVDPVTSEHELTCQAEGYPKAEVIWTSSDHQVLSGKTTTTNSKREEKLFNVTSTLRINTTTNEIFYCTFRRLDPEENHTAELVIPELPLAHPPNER
T3 sequence (Q9NZQ7 19-290 limits assumed): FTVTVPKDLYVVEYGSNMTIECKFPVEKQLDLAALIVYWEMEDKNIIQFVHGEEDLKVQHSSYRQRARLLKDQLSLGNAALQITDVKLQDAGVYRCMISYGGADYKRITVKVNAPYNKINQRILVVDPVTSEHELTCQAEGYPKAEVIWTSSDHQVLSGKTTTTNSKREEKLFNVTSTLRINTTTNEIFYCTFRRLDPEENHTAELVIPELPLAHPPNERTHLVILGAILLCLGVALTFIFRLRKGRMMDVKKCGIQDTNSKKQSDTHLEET
T10 sequence (Q9EP73 19-238 limits assumed): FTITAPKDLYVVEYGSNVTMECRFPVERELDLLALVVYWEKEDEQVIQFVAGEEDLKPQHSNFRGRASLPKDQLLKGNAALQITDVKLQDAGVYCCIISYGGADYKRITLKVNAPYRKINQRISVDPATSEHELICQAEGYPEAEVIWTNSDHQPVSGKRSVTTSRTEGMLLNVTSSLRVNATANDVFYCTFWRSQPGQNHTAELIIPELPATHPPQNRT

B1: ADI-38002 (antibody, human IgG1, kappa, V domains shown)
VH: QVQLQQWGAGLLKPSETLSLTCAVYGGSLSGYPWSWIRQPPGKGLEWIGETDVSGWTDYNPSLKSRVTISVDTSKNQFSLKLSSVTAADTAVYYCARDGRRMGTPSFDIWGQGTMVTVSS
VL: DIQMTQSPSSVSASVGDRVTITCRASQDINSFLAWYQQKPGKAPKLLIYAASSLNSGVPSRFSGSGSGTDFTLTISSLQPEDFATYYCQKSVYFPPTFGGGTKVEIKR
notes: Human IgG1 (GASDIE); Some in vivo work used a mouse IgG2a form; also called Ab-38002; test antibody 38002
Turning to B1, the figures for the half-maximal effective concentration (EC50) in assay [1], in assay [2] and in assay [3] were 145 µg/mL, 0.1 µg/mL and 0.03 µg/mL, respectively. In addition, the dissociation constant Kd was 0.7 nM in [4]; 1.28 nM in assay [5]; 7.62 nM in assay [6]; 1.9 nM in [7]; 0.601 nM in assay [8]; 1.28 nM in assay [9]. For the same molecule, the Kd in [12] turned out to be 3.76 nM; in assay [13] it was 3.2 nM; in [14], 0.727 nM; in assay [15], 0.601 nM. The binding result in assay [10] is “no binding”. Moreover, the “EC50 (read off the curve)” value was around 0.5 nM in [11] and around 1 nM in assay [16].

B2: ADI-37464 (antibody, V domains shown)
VH: QVQLQQWGAGLLKPSETLSLTCAVYGGSLSGYPWSWIRQPPGKGLEWIGETDVSGWTDYNPSLKSRVTISVDTSKNQFSLKLSSVTAADTAVYYCARDGRRMGTPSFDIWGQGTMVTVSS
VL: DIQMTQSPSSVSASVGDRVTITCRASQGINSFLAWYQQKPGKAPKLLIYAASSLNSGVPSRFSGSGSGTDFTLTISSLQPEDFATYYCQKAVYFPPTFGGGTKVEIKR
Consider B2, for which the Kd in assay [17] stood at 1.6 nM; in assay [8] it was 0.426 nM; in assay [9] it was 1.52 nM; in [12] it was 2.76 nM; in assay [14] it was 0.508 nM; in assay [18], 6.23 nM.

B3: ADI-38004 (antibody, V domains shown)
VH: QVQLQQWGAGLLKPSETLSLTCAVYGGSLSGYPWSWIRQPPGKGLEWIGETDVSGWTDYNPSLKSRVTISVDTSKNQFSLKLSSVTAADTAVYYCARDGRRMGTPSFDIWGQGTMVTVSS
VL: DIQMTQSPSSVSASVGDRVTITCRASQGISSFLAWYQQKPGKAPKLLIYAASSLNSGVPSRFSGSGSGTDFTLTISSLQPEDFATYYCQSAVYFPPTFGGGTKVEIKR
Consider B3, for which the dissociation constant Kd in assay [17] turned out to be 2.84 nM; in assay [8], 0.597 nM; in assay [9] it was 1.22 nM; in assay [12] it was 37.7 nM; in assay [14], 1.24 nM; in assay [18], 20 nM.

B4: ADI-38003 (antibody, V domains shown)
VH: QVQLQQWGAGLLKPSETLSLTCAVYGGSLSGYPWSWIRQPPGKGLEWIGETDVSGWTDYNPSLKSRVTISVDTSKNQFSLKLSSVTAADTAVYYCARDGRRMGTPSFDIWGQGTMVTVSS
VL: DIQMTQSPSSVSASVGDRVTITCRASKGISSFLAWYQQKPGKAPKLLIYAASSLNSGVPSRFSGSGSGTDFTLTISSLQPEDFATYYCQKAVYFPPTFGGGTKVEIKR
On to B4, for which the Kd was 1.02 nM in assay [17]; 0.377 nM in assay [8]; 1.27 nM in assay [9]; 8.09 nM in assay [12]; 0.175 nM in [14]; 14.2 nM in assay [18].
